Assay: soluble on expression in E. coli; label from the status in PepcDB or PDB records

Sequence: MDRVIEDKELGRLVVRDNVRAKRLVFRTKADAIYISIPLGVTMREVKEAIEKLRPRLLDSRQKLVRPLIDLNYRIETEYFKLSLVSGKRERFLAHSELGEMRIICPPTADFTDSNLQDWLRKVIEEALRRNAKIILPPRLYMLSEKHRLPYESVQINSSRGRWGSCSSRKKINLSYFLVLLPKHLIDYVLLHELCHTCEMNHGDRFWNLLNGLTDGKALELREELKRYKTEILEHHHHHH
- soluble on expression in E. coli: not soluble

Sequence: MGSDKIHHHHHHDPVSDITDLNYWKTPEQFDSFVFGLHSRFRSHSWNMFLLGEARSDVFGGIPFGGEATQGMERFPYNTLNAENPGISGFGDLYQNINQMNLFISRTLHTDVLTESARNYYLGQVYGLRAYYMYQLYRSWGDVVFTEEPSLGFEVGKLAKAATPAAEIFEQVKKDIESSLSYFGSDYTIKEKKSLWSKAATLMLKADVYLWSAHRDGGEGDARTAKNALVDIQNNISRSNLDLMDTYQGVFAYDNKGNKEIIFTIHNELFEYNLWNGNNDLFPQADYLGKFYNADGTLINTSVENNFGIMRLMVKLENFKKFLPGDTRRDVTLKDVYNKVENGKLELVGVYPHKYWGVMNGSTRVRCDDYPIYRYSDLLLMLAEAKVLLGEDPATEINRVRRRAFGDAYDASTVGFPNQEVDKRPADAVLQERLFEFMLEGKRWYDLRRFGDSYVLDYTPAEPARLLWPINQGALTNNPLLKQTVGY
- soluble on expression in E. coli: not soluble

Sequence: MIITLFVMVSGNKVKYEGSGKSGLWMSNLEKSDKTSIGPNYFLNLYWQGSKKEEKWTVVERITLYVDGEKYQDDNVDEYDLSEYTGDEMPGGGRMEDHISTFDYMPEDEVIGHDVLVKVEWRTGQKKQTEAIKLHKKPWYKKLEHHHHHH
- soluble on expression in E. coli: not soluble

Sequence: MGSDKIHHHHHHMMLSVSLAALRTFVEVARLRSFKDAAQSLGVTSGAVSQQVKLVENRLDVTLFERSGRNVKLTEQGLRLLGAIHVPFEQIREAVEDFDRRRSARNVVRIVTPIALASHWLVPRMDRFSRRHPDIELHIDTAHAEGVRRQLFDIAIQYGNETAPGVEAKRLPSSKLVVVGSPQLLEGASPIRDPSDCLKFPLLHDHDRLNWPAWFRANGSTHLPAASRKGLSFADESLLVAAAAAAQGLALVRDIHAENLLLHGRLKIAIETSMEPFQSYYLLTPSLVSQRPVVDACKNWILSEMARPVFLDLLSRP
- soluble on expression in E. coli: not soluble

Sequence: MGHHHHHHSHDHYGCKQCSSLRSIQNLNSLVDKTSWIPSSVAEALGIVPLQYVFVMTFTLDDGTGVLEAYLMDSDKFFQIPASEVLMDDDLQKSVDMIMDMFCPPGIKIDAYPWLECFIKSYNVTNGTDNQICYQIFDTTVAEDVI
- soluble on expression in E. coli: not soluble

Sequence: APWFLEYSKSECHFYNGTQRVRLLVRYFYNLEENLRFDSDVGEFRAVTELGRPDAENWNSQPEFLEQKRAEVDTVCRHNYEIFDNFLVPRRVEPTVTVYPTKTQPLEHHNLLVCSVSDFYPGNIEVRWFRNGKEEKTGIVSTGLVRNGDWTFQTLVMLETVPQSGEVYTCQVEHPSLTDPVTVEW
- soluble on expression in E. coli: soluble

Sequence: SSDVTFLVEGRPFYAHKVLLFTASPRFKALLSSKPTNDNTCIEIGYVKYPIFQLVMQYLYYGGPESLLIKNNEIMELLSAAKFFQLEALQRHCEIICAKSINTDNCVDIYSHAKFLGVTELSAYCEGYFLKNMMVLIENEAFKQLLYDKNGEGAGQDVLQDLQRTLAIRIQSIHLSSSKGSVV
- soluble on expression in E. coli: soluble

Sequence: MDLSTGVPVSIQLKTIVQQGNEQKDFFFDLEGQLVKMGDTLYIRYKEELLEDTEPTPVTIKIEPDGHVQLIRAGELRMRLRFGYQEKLDTSYRTPYGLLQISTFTHNLRVSLKDQPMSGKILVDYDLYSQTERIGEYHLELEFTA
- soluble on expression in E. coli: not soluble

Sequence: MERPQLDSMSQDLSEALKEATKEVHIRAENSEFMRNFQKGQVSREGFKLVTASLYHIYTALEEEIERNKQNPVYAPLYFPEELHRRAALEQDLAFWYGPHWQEAIPYTPATQHYVKRLHEVGGTHPELLVAHAYTRYLGDLSGGQVLKKIAQKALALPSSGEGLASFTFPSIDNPTKFKQLYRARMNTLELTPEVKHRVTEEAKTAFLLNIELFEELQALLTEEHKDQSPSQTEFLRQRPASLVQDTTSAETPRGKSQISTSSSQTP
- soluble on expression in E. coli: soluble

Sequence: MGSDKIHHHHHHMKEIVHLQSFLAVARTGSLTLAAEELHVTPSAVSHRLRQLEQRLGAKLLRRTPHGMALTGEGQRFKDRISDPIEAIEMALRPETGQEGPLTVSVMPWFASSWLMPRLKRFQLRCPDARIRIETSSQLSDLAHGHVTAALRFGRGDWPDIEVEPLFDEWVIPVASPDVVAQMGSNAQDPARWPRLPDPDDLWSSWFGDEVMGEAMRSSIELHDTSSLTEAAVNGMGVVLGRYTHVAPWLERGDLVTLASQWIRMPKRHYLVRSRHRPMHSCFPHFRRWLHDEVKKYQTSASSEFY
- soluble on expression in E. coli: not soluble

Sequence: MSLNKLLSQLASVEILTPKIDDTLWFFKDILGLHEVGRKDRSVYLRGWEDWYAYSLKVTESDTAGVKEIVWRTYSEKDLIDSINIVNSNGLGLGWDEGEPDMGVGKGYKFILPSGQIGKLVWEMKIWRASGELRSGYKARPMKKPTKGVQAKDLSHIFIFAYNDESLAKTVELLKRLTFKVNEILKEGDKRIAYWMAVNGTAHDLAVSLDPSGVPARLNHVTFNVDYADDILKAADFYTDYGLEIVGGPLRHGITDSHSLYVKEPGGNVIELLHGGYLNVVPDWEPIVWDTKEDENRWLYYWGHVKEAFWHGEGHHHHHH
- soluble on expression in E. coli: not soluble

Sequence: MPTFSLWLPAGSNNVHPCGDPYAHHLFMRCLYHAKHDPTMKFDVKTTNVNKTSQEFKNTGLRRMPGISAEESGETQTFETEDDILDFLEYLKPERGDDEEAENATCDLFRQFARFVKDVEHRDTAFNTELLRLDKYLSEQETKFLISDDVTHIDCLVLTRLHSIRVAAKMLKNYEIPADLSHVLDYLKAGYATEMFRVSCPSDQEIVLHWTELKDTPRLSAKDRAKLVREEPVFSFSV
- soluble on expression in E. coli: not soluble

Sequence: MKKRVHILIMTLMLIVACVGCSGSSDNPPPANSLHSASTIPISAMPSFSTPSPTVEDTENQQSKTVNYLINSMTLEEKIGQIFIVAFRKGKSSRPLKVLDNSTKLKIQNFNPGGIILFSENIDTIPQTQKLIRDMQEASKIPMFIAVDEEGGRIARIGNNPKMHSTKIPSAQTIGLADDPELAYEAGRILGAELSALGFNMNFAPVADVNTNPDNPVIGDRSFGSDPYKVGLMVQAMSKGMQEQNVCTVLKHFPGHGDTSYDSHLGQVVINHDIERLRQIELTPFKMGIKAGADGVMTAHIIMPNITGSNLPATLSEEILSGLLRNELKHEKLIITDAMEMKAISNYWSSSKAAVMAFKAGADIILMPESFEEAYNGILKAVKDGEITEERLNQSLQRILALKFERNILANKESSVDPEKVLGRQEHTDIVVKIMQKAEEQNIP
- soluble on expression in E. coli: not soluble

Sequence: MVSCENLWQQALAILATQLTKPAFDTWIKASVLISLGDGVATIQVENGFVLNHLQKSYGPLLMEVLTDLTGQEITVKLITDGLEPHSLIGQESSLPMETTPKNATALNGKYTFSRFVVGPTNRMAHAASLAVAESPGREFNPLFLCGGVGLGKTHLMQAIAHYRLEMYPNAKVYYVSTERFTNDLITAIRQDNMEDFRSYYRSADFLLIDDIQFIKGKEYTQEEFFHTFNSLHEAGKQVVVASDRAPQRIPGLQDRLISRFSMGLIADIQVPDLETRMAILQKKAEYDRIRLPKEVIEYIASHYTSNIRELEGALIRAIAYTSLSNVAMTVENIAPVLNPPVEKVAAAPETIITIVAQHYQLKVEELLSNSRRREVSLARQVGMYLMRQHTDLSLPRIGEAFGGKDHTTVMYSCDKITQLQQKDWETSQTLTSLSHRINIAGQAPESLEHHHHHH
- soluble on expression in E. coli: not soluble

Sequence: MGSDKIHHHHHHMGIIATSFIPFRGLSVSNLSETNFSETSNANVDPQEIAKFEKMAATWWDPEGEFKPIHKLNPLRLNYIDQAVGGLFGKRVLDVGCGGGILSESMARLGARVDGLDMGAEPLDVAKLHALEMGVEINYIQDTAEHHRDSHQGQYDVVTCMEMLEHVPDPASVIKACSDMVKPGGYVFFSTINRNIRAYVETVIGAEYLLKMLPVGTHDHKKYIKPAELIGMADAVDLECVDATGITYNPLTEIFRYTKSLDVNYMIATVKQDD
- soluble on expression in E. coli: not soluble

Sequence: MRGPVKIVATVGPSSSSASILAQMLSLGVDVARINASHGGVEQWNSMLESLRRAEEAVGKRVGVAVDLEGPRVRTGNSEPVKLEKGDLVTLGFMEGDVPVDARQFFETIDEGDIVLLDDGKIILQVESVEGFRVKARVLEGGVLGPRKGVVVRGKEPDLPPLSAKDRRALEFFADKGVSHVYVSFARSAEHVEKVRTVVRRLGLRQARIFAKIEGPSGVSRIGEIAEASDGVIIARGDLGMHYSLEELPEIQELIVWEARKRYKTVVLATEFLSSMIEKPVPTRSEVVDIYQAVLQTADALMLTGETAIGKYPVKSVQWMAKISSRAYKKLATSPPERPRPTSTPYKLALGLVELAESLDSPLVVYSKTGRFAERLASFKPLKTFYVGVPSREVERVVRHLWGAEPIVVGDYPYEAGLAKTYEKLRRENIIHGDETVVEAAWSSERGIYIIRVRNLEF
- soluble on expression in E. coli: soluble

Sequence: MFFAIILLVHTILLPSTLLYQCATAKRPANQRKSQRSTKSRKSSRRSRRRNGRSRKSSRSGKSSRSSKSGRSSKSSNSTKTTGSKSSKSSRSQRSNKSNKMVTNPKGFSDRKIRAAILADQKAAADAVKSQKLSSNNSSEKQLNAHNDNKISYVNVRVIPHELIFPPIGGMKHVRVKNSTGKPIAYMAKCSDNILFRINPVYGIIDTDRDAQINILRENGAAKHDKLVIVTTVHHDANKTAQHTFSQLNQGIENPNYNVNVVPLLTQ
- soluble on expression in E. coli: soluble

Sequence: MGSDKIHHHHHHMSHKFKFLTLPHRSGEVANVFIHGYSAGHDMEDRCALRKCIPSSLHNCINIFAFWPSGHWAKFDDWSSKSILAAGRLSFLAGAGLAVADRAFHFNTSRKRATAMGKTLLSQLETYLLKHHPYVSKVNLVGHSLGGRVVIHALLDLQGKPADDSLVIGDVLLMAAASTLSGDEAKTIGERINGKLYNAWSSDDKVLLFNLGENSAGRQEIDHCQNVPMHGFGHTDYWPRLDRVLRASGFHGYRGGLPSAIQPELVIKNPDPVVADHLLYDLLELTSDGIRSQVVKHLRSSSWTKLETEHPLYLLTKEFQLLGGHCLVNLARGKGLKYVQILLMLAEHYGLVSELHDCAQVIEMEALLISKCFQSSFGEEHVLASMQDIVLQIHGLSEKEYFEQVDALAASLTVTSYISTPETPAPVYRKTGSAQTGDSKELVLASGSFLTSFSTLMPTERMKAAVINLKSAVKPGYSALIPAVAAVFYARLKLNNEGLL
- soluble on expression in E. coli: not soluble

Sequence: MSDEEEEDVNFKPGTEISSTKANYTVVRLLGEGGFGAVYLVQDNKSKKQSAMKVERKIEKRKHSKLKMEIAILKLVGSGKHFTQIVDRGKKDKEGFFFLVMELVGKSLADLKADRPDKVFSFATGLGVSCQCLEAVEELHKTGFIHRDLKPQNYACGLDEKRHNIYILDFGIARKYLNTKNELKTPRETVGFKGTVRFAPIACHRNTEMGPKDDCESWFYLLLDLIVPSGLPWRKLSDKHEVLKEKEECRKDKRSSLFAGLRQTDYLSKVLDYIDGRAYQDRVDYQFIYKNLAEACKVCNLDIDSPYDWELQKPEKTSKEPTSSKMP
- soluble on expression in E. coli: not soluble

Sequence: MGSDKIHHHHHHMIDLHCHTTASDGVVTPSNVIRQASRKGIAVLAIADHDTVNGLDEAAGAAEKEGICLIPAIELSVAFPKGDFHLLGYGIQYKNENFRNKLAQLRTIREERIFRIIERLKRYGLNLTHEDLQNESQGDAPGKAHVARVLVRKRYASNFNVACKTYLNEGMPGYVPKEKLSLESACELINNAGGLSVLAHPKSLNGENHEEYERIIQMCVSHGLAGIEVYASLHDNQDVRLFLELARRHRLIATGGSDFHGDNGACLGYYGHRRPVPESCSQPLLQKISQNKT
- soluble on expression in E. coli: not soluble

Sequence: VGGHEKVISLGFDASKGFHTYAFDWQPGYIKWYVDGVLKHTATANIPSTPGKIMMNLWNGTGVDDWLGSYNGANPLYAEYDWVKYTSNQTGGSFFEPFNSYNSGTWEKADGYSNGGVFNCTWRANNVNFTNDGKLKLGLTSSAYNKFDCAEYRSTNIYGYGLYEVSMKPAKNTGIVSSFFTYTGPAHGTQWDEIDIEFLGKDTTKVQFNYYTNG
- soluble on expression in E. coli: soluble

Reference: the DeepSol protein solubility set
